Here are results for 9 molecules from patent US20230265217A1 (TWIST BIOSCIENCE, published 2023).

As a reminder, the Kd is the equilibrium constant for the complex coming apart.

The labels stand for the following.
B1: 7-31 (VHH, not shown: a dimerising Fc or GST)
VHH: EVQLVESGGGLVQPGGSLRLSCAASGFTFSNYSMGWFRQAPGKEREFVAAIHWNGDSTAYADSVKGRFTISADNSKNTAYLQMNSLKPEDTAVYYCAAQTEDSAQYIWGQGTLVTVSS
B2: 7-32 (VHH)
VHH: EVQLVESGGGLVQPGGSLRLSCAASGSTFSVNAMGWFRQAPGKEREFVAGVTRGGYTNYADSVKGRFTISADNSKNTAYLQMNSLKPEDTAVYYCAADGVPEYSDYASGPVWGQGTLVTVSS
B3: 7-6 (VHH, not shown: a dimerising Fc or GST)
VHH: EVQLVESGGGLVQPGGSLRLSCAASGRIFYPMGWFRQAPGKEREFVAAVRWSSTGIYYTQYADSVKGRFTISADNSKNTAYLQMNSLKPEDTAVYYCAAALSEVWRGSENLREGYDWGQGTLVTVSS
B4: 7-29 (VHH, not shown: a dimerising Fc or GST)
VHH: EVQLVESGGGLVQPGGSLRLSCAASGRTHSIYPMGWFRQAPGKEREFVASITSYGDTNYADSVKGRFTISADNSKNTAYLQMNSLKPEDTAVYYCAARRWIPPGPIWGQGTLVTVSS
B5: 7-21 (VHH)
VHH: EVQLVESGGGLVQPGGSLRLSCAASGRTISRYTMGWFRQAPGKEREFVASITSGGSTAYADSVKGRFTISADNSKNTAYLQMNSLKPEDTAVYYCAKEDVGKPFDWGQGTLVTVSS
B6: 7-8 (VHH)
VHH: EVQLVESGGGLVQPGGSLRLSCAASGSTFTINAMGWFRQAPGKEREFVSGISHNGGTTNYADSVKGRFTISADNSKNTAYLQMNSLKPEDTAVYYCAADGVPEYSDYASGPVWGQGTLVTVSS
B7: 8-06 (VHH, not shown: a dimerising Fc or GST)
VHH: EVQLVESGGGLVQPGGSLRLSCAASGFTFDYYAMGWFRQAPGKEREFVSAIDSEGRTSYADSVKGRFTISADNSKNTAYLQMNSLKPEDTAVYYCARWGPFDIWGQGTLVTVSS
notes: also called 8-6
B8: 7-17 (VHH, not shown: a dimerising Fc or GST)
VHH: EVQLVESGGGLVQPGGSLRLSCAASGFSLDYYGMGWFRQAPGKEREFVAAITSGGTPHYADSVKGRFTISADNSKNTAYLQMNSLKPEDTAVYYCASAYNPGIGYDWGQGTLVTVSS
B9: 8-10 (VHH, not shown: a dimerising Fc or GST)
VHH: EVQLVESGGGLVQPGGSLRLSCAASGFIGNYHAMGWFRQAPGKEREFVAAVTWSGGTTNYADSVKGRFTISADNSKNTAYLQMNSLKPEDTAVYYCAREGYYYDSSGYPYYFDYWGQGTLVTVSS

The target in the first assay is T1, Antibody 178-09_His B.1.1.7 (27080) (SARS-CoV-2, UniProt P0DTC2 14-685).
T1 construct: domain: S1; also called TB178-9
Description: Carterra SPR.
In turn, B1 displayed an equilibrium dissociation constant (Kd) of 388 nM.
The molecule B2 registered a dissociation constant (Kd) of 62.4 nM. This Kd lies about 6.2-fold lower than the previous one.
As for B3, the dissociation constant (Kd) stood at 42.4 nM.
Still for that read-out and setting: as for B4, the figure is 54.8 nM; as for B5, 35.6 nM.
As for B6, the binding result is on record as “no binding”.
Take B7: the Kd stood at 141 nM. This counts as sub-micromolar.
With B8, the Kd amounted to 39.8 nM.
B9 came in with a Kd of 377 nM. Against the preceding molecule, the Kd is about 9.5-fold higher.

In a further assay the target is T2, Antibody 178-08_His 501.V2 (27079) (SARS-CoV-2, UniProt P0DTC2 14-685).
T2 construct: domain: S1; also called TB178-8
Description: Carterra SPR.
As to B1, the binding result is on record as “no binding”.
On the same count and under the same terms, the value for B2 was “no binding”; that for B3 was “no binding”.
Still for that read-out and setting: as for B4, the entry is “no binding”; as for B5, “no binding”.
For the molecule B6, the binding result was “no binding”.
Still for that read-out and setting: the value for B7 was “no binding”.
Same read-out and setting: the value for B8 was “no binding”; that for B9 was “no binding”.

Another assay has as its target T3, Antibody 178-10_His CA_W152C_L452R_D614G (27081) (SARS-CoV-2, UniProt P0DTC2 14-685).
T3 construct: domain: S1; also called CA variant S1; California variant S1
Description: Carterra SPR.
With B1, the binding result was “no binding”.
For B2, the binding result is “no binding”.
In the case of B3, the binding result was “no binding”.
For B4, the binding result is recorded as “no binding”.
B5: binding was characterised by a dissociation constant (Kd) of 277 nM.
In the case of B6, the binding result is given as “no binding”.
Consider B7, for which the binding result is on record as “no binding”.
Same read-out and setting: the value for B8 was “no binding”.
For B9, the binding result is “no binding”.

A further assay has as its target T4, S1 RBD L452R E484Q (Acro) (SARS-CoV-2, UniProt P0DTC2 319-537).
T4 construct: domain: S1 RBD; also called SARS-COV-2 RBD India Var; L452R E484Q S1; India variant mutation L452R E484Q
As to the kind of experiment: Carterra SPR.
For the molecule B1, the binding result is reported as “no binding”.
For the molecule B2, the binding result was “no binding”.
Still for that read-out and setting: as for B3, the entry is “no binding”.
The same measure, in the same setting: as for B4, the entry is “no binding”.
On to B5, for which the binding result is “no binding”.
Still for that read-out and setting: the value for B6 was “no binding”.
